{"source": "paper PMC11347170", "about": "“Staphylococcal exoribonuclease YhaM destabilizes ribosomes by targeting the mRNA of a hibernation factor”", "molecular_target": "YhaM D193A (Staphylococcus aureus JE2 (USA300), UniProt A0A0H2XHZ3 1-313, D193A)", "assay": "EMSA; 1 mM Mn2+; 15 nM RNA, 0-30 uM YhaM; partial RNA degradation at high protein; EMSA: 50 mM Na-Tricine pH 8.0, 100 mM KCl, 1 mM MnSO4, 37 C 20 min, 20% TBE native gel", "settings": "protein: recombinant; tags: N-terminal His6 (pMCSG7); label: 5'-6-FAM; single strand"}
{"binder": "AGGAAAAAACAUUUUAUAAAGGAGA (ssRNA)", "note": "[RNA_a]", "values": [{"measurement": "binding result", "result": "binds"}]}
